Source: patent US20190241648A1 (STATEN BIOTECHNOLOGY B V, published 2019)
Ends that are not written are not given here.

Tests used:
Experiment in all cases: peptide microarray
ApoC3 peptide … W42A = target: T1, ApoC3 peptide … W42A (human, not fully specified (bridges); also: cyclic constrained)
T1 peptide: ARGAVTDGFSSLK
From the text: (§1) Amino acids G41 and G46 were highly conserved; substitution of G41 by E, N or Q caused a decrease of spot intensities by ˜70% or higher, whereas exchange of G46 by N was hardly tolerated and resulting in 90% reduced spot intensities. […] Amino acid positions V43, D45 and K51 were also well conserved with a clear preference for the wild type amino acids and a certain tolerance particularly for conservative exchanges by Y, F and I (V43), A, E and K (D45) as well as by R (K51). […] Replacement of V43 by Y, however, increased spot intensity by two fold. Amino acid positions W42 and 48S were poorly conserved or even variable; both positions were susceptible for only a number of amino acid exchanges, and exchange by F, S and T (W42) or by E (S48) even caused a two- to three-fold increase of spot intensity. Amino acid positions A39 and R40 were variable.
(§2) Pre: staining of one of the ApoC3 peptide microarrays was done with the secondary antibody goat anti-human IgG (Fe) DyLight680 (1:5000) and control antibody mouse monoclonal anti-HA (12CA5) DyLight800 (1:2000) to investigate background interactions of the secondary antibody with the antigen-derived peptides that could interfere with the main assays. Subsequent incubation of other ApoC3 peptide microarrays with antibody samples was followed by staining with secondary and control antibodies as well as read-out at scanning intensities of 7/7 (red/green). The additional HA peptides framing the peptide arrays were stained as internal quality control to confirm the assay quality and the peptide microarray integrity.

ApoC3 peptide … S48A = target: T2, ApoC3 peptide … S48A (human, thioether (positions not given here); also: cyclic constrained)
T2 peptide: ARGWVTDGFASLK
From the text: as §1, §2

ApoC3 peptide … G41C = target: T3, ApoC3 peptide … G41C (human, also: cyclic constrained)
T3 peptide: ARCWVTDGFSSLK
From the text: as §1, §2

ApoC3 peptide … W42C = target: T4, ApoC3 peptide … W42C (human, not fully specified (bridges); also: cyclic constrained)
T4 peptide: ARGCVTDGFSSLK
From the text: as §1, §2

ApoC3 peptide … G46C = target: T5, ApoC3 peptide … G46C (human, also: cyclic constrained)
T5 peptide: ARGWVTDCFSSLK
From the text: as §1, §2

ApoC3 peptide … S49C = ApoC3 peptide … S49C (human, cyclic constrained)
From the text: as §1, §2

ApoC3 peptide … L50C = target: T6, ApoC3 peptide … L50C (human, not fully specified; cyclic constrained)
T6 peptide: ARGWVTDGFSSCK
From the text: as §1, §2

ApoC3 peptide … T44D = target: T7, ApoC3 peptide … T44D (human, not fully specified (bridges); also: cyclic constrained)
T7 peptide: ARGWVDDGFSSLK
From the text: as §1, §2

ApoC3 peptide … R40F = target: T8, ApoC3 peptide … R40F (human, not fully specified (bridges); also: cyclic constrained)
T8 peptide: AFGWVTDGFSSLK
From the text: as §1, §2

ApoC3 peptide … G41F = target: T9, ApoC3 peptide … G41F (human, also: cyclic constrained)
T9 peptide: ARFWVTDGFSSLK
From the text: as §1, §2

ApoC3 peptide … V43F = target: T10, ApoC3 peptide … V43F (human, not fully specified; cyclic constrained)
T10 peptide: ARGWFTDGFSSLK
From the text: as §1, §2

ApoC3 peptide … S49F = ApoC3 peptide … S49F (human, cyclic constrained)
From the text: as §1, §2

ApoC3 peptide … F47G = target: T11, ApoC3 peptide … F47G (human, not fully specified (bridges); also: cyclic constrained)
T11 peptide: ARGWVTDGGSSLK
From the text: as §1, §2

ApoC3 peptide … G46H = target: T12, ApoC3 peptide … G46H (human, not fully specified (bridges); also: cyclic constrained)
T12 peptide: ARGWVTDHFSSLK
From the text: as §1, §2

ApoC3 peptide … S48I = ApoC3 peptide … S48I (human, cyclic constrained)
From the text: as §1, §2

ApoC3 peptide … S49I = target: T13, ApoC3 peptide … S49I (human, cyclic constrained)
T13 peptide: ARGWVTDGFSILK
From the text: as §1, §2

ApoC3 peptide … K51I = target: T14, ApoC3 peptide … K51I (human, not fully specified; cyclic constrained)
T14 peptide: ARGWVTDGFSSLI
From the text: as §1, §2

ApoC3 peptide … W42K = target: T15, ApoC3 peptide … W42K (human, not fully specified (bridges); also: cyclic constrained)
T15 peptide: ARGKVTDGFSSLK
From the text: as §1, §2

ApoC3 peptide … S48K = ApoC3 peptide … S48K (human, cyclic constrained)
From the text: as §1, §2

ApoC3 peptide … L50M = target: T16, ApoC3 peptide … L50M (human, not fully specified; cyclic constrained)
T16 peptide: ARGWVTDGFSSMK
From the text: as §1, §2

ApoC3 peptide … W42N = target: T17, ApoC3 peptide … W42N (human, not fully specified (bridges); also: cyclic constrained)
T17 peptide: ARGNVTDGFSSLK
From the text: as §1, §2

ApoC3 peptide … T44N = target: T18, ApoC3 peptide … T44N (human, not fully specified (bridges); also: cyclic constrained)
T18 peptide: ARGWVNDGFSSLK
From the text: as §1, §2

ApoC3 peptide … V43P = target: T19, ApoC3 peptide … V43P (human, not fully specified (bridges); also: cyclic constrained)
T19 peptide: ARGWPTDGFSSLK
From the text: as §1, §2

ApoC3 peptide … T44P = target: T20, ApoC3 peptide … T44P (human, not fully specified (bridges); also: cyclic constrained)
T20 peptide: ARGWVPDGFSSLK
From the text: as §1, §2

ApoC3 peptide … G46P = target: T21, ApoC3 peptide … G46P (human, not fully specified (bridges); also: cyclic constrained)
T21 peptide: ARGWVTDPFSSLK
From the text: as §1, §2

ApoC3 peptide … G41Q = target: T22, ApoC3 peptide … G41Q (human, also: cyclic constrained)
T22 peptide: ARQWVTDGFSSLK
From the text: as §1, §2

ApoC3 peptide … D45Q = target: T23, ApoC3 peptide … D45Q (human, cyclic constrained)
T23 peptide: ARGWVTQGFSSLK
From the text: as §1, §2

ApoC3 peptide … S49Q = target: T24, ApoC3 peptide … S49Q (human, cyclic constrained)
T24 peptide: ARGWVTDGFSQLK
From the text: as §1, §2

ApoC3 peptide … L50Q = target: T25, ApoC3 peptide … L50Q (human, not fully specified (bridges); also: cyclic constrained)
T25 peptide: ARGWVTDGFSSQK
From the text: as §1, §2

ApoC3 peptide … G46V = target: T26, ApoC3 peptide … G46V (human, thioether (positions not given here); also: cyclic constrained)
T26 peptide: ARGWVTDVFSSLK
From the text: as §1, §2

ApoC3 peptide … G41W = target: T27, ApoC3 peptide … G41W (human, also: cyclic constrained)
T27 peptide: ARWWVTDGFSSLK
From the text: as §1, §2

- % of binding to wild-type peptide (ApoC3 peptide … W42A): 116%
- % of binding to wild-type peptide (ApoC3 peptide … S48A): 75.5%
- % of binding to wild-type peptide (ApoC3 peptide … G41C): 14.8%
- % of binding to wild-type peptide (ApoC3 peptide … W42C): 61.6%
- % of binding to wild-type peptide (ApoC3 peptide … G46C): 0%
- % of binding to wild-type peptide (ApoC3 peptide … S49C): 0%
- % of binding to wild-type peptide (ApoC3 peptide … L50C): 0%
- % of binding to wild-type peptide (ApoC3 peptide … T44D): 0%
- % of binding to wild-type peptide (ApoC3 peptide … R40F): 70.8%
- % of binding to wild-type peptide (ApoC3 peptide … G41F): 10.8%
- % of binding to wild-type peptide (ApoC3 peptide … V43F): 68.9%
- % of binding to wild-type peptide (ApoC3 peptide … S49F): 0.89%
- % of binding to wild-type peptide (ApoC3 peptide … F47G): 0%
- % of binding to wild-type peptide (ApoC3 peptide … G46H): 1.81%
- % of binding to wild-type peptide (ApoC3 peptide … S48I): 23.6%
- % of binding to wild-type peptide (ApoC3 peptide … S49I): 0%
- % of binding to wild-type peptide (ApoC3 peptide … K51I): 0.86%
- % of binding to wild-type peptide (ApoC3 peptide … W42K): 136%
- % of binding to wild-type peptide (ApoC3 peptide … S48K): 90%
- % of binding to wild-type peptide (ApoC3 peptide … L50M): 0.65%
- % of binding to wild-type peptide (ApoC3 peptide … W42N): 118%
- % of binding to wild-type peptide (ApoC3 peptide … T44N): 2.49%
- % of binding to wild-type peptide (ApoC3 peptide … V43P): 1.86%
- % of binding to wild-type peptide (ApoC3 peptide … T44P): 0%
- % of binding to wild-type peptide (ApoC3 peptide … G46P): 0%
- % of binding to wild-type peptide (ApoC3 peptide … G41Q): 27.1%
- % of binding to wild-type peptide (ApoC3 peptide … D45Q): 21%
- % of binding to wild-type peptide (ApoC3 peptide … S49Q): 0.33%
- % of binding to wild-type peptide (ApoC3 peptide … L50Q): 0.12%
- % of binding to wild-type peptide (ApoC3 peptide … G46V): 0%
- % of binding to wild-type peptide (ApoC3 peptide … G41W): 17.7%
B1: anti-ApoC3 antibody 14C7 (antibody, V domains shown)
VH: QVQVQESGPGLVKPSQTLSLTCTVSGGSITTNSYYWSWIRQPPGKGLEWMGAIDYSGDTYYSPSLKSRTSISRDTSKNQFTLQLTSVTPEDTAVYYCVSRIPTGEYWGQGTQVTVSS
VL: QTVVTQEPSLSVSPGGTVTLTCGLNSGSVTSSNYPDWYQQTPGQAPRLLIYNTNSRHSGVPSRFSGSISGNKAALTITGAQPEDEADYYCALYMGSDSVVFGGGTHLTVL
notes: it was detected with goat anti-human IgG (Fc); also called mAb 14C7; llama antibody 14C7
